In the nanobody polyreactivity screen of Harvey et al. (2022):

Assay: yeast display, Sf9 membrane polyspecificity reagent, FACS + sequencing; frameworks hold sequencing errors
Summary of the method: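 Genes from sorted yeast were amplified by colony PCR, read by MiSeq 2 × 250 sequencing and filtered on CDR length. These cells carried a synthetic nanobody library in Saccharomyces cerevisiae BJ5465 and were sorted by FACS into low and high (top ~1%) gates on anti-HA and streptavidin fluorescence. Polyreactivity is labelled according to the gate of origin.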

| Sequence | polyreactivity (PSR sort gate) |
| --- | --- |
| HVQLVESGGGLVQAGGSQRLSCAPSGSTFYYNAMGSYRQAPGKERELVAAISKTGGSTYYADSVKGRFTISRDYAKNTVYLQMNSLKPVDTAVYYCAAVGSRGAWARRGYWGQGTHVTVSS | high polyreactivity |
| HVQLVESGGGLVQARGSLRLSCAASGSTFDNYTMGWYRQAPGKERELVAAITRNSGSTYYADSVKGRFTISRDNEKNSVYLHMNSLKPEDTAVYYCAADSYYRRYFGWYEYWGQGTQVTVSS | high polyreactivity |
| HVQLVESGGGLVQEGGSLRLSCAASGSILNQNAMGWYRQARGKERELVASISWDGDRTYYADSVKGRFTISRDNAKNTVYLQMNSLKPEDTAVYYCAASFYGIDRMGYWGQGTQVTVSS | low polyreactivity |
| HVQLVESGGGLVQEGRSLRLSCAASGFTFVGNAMGWYRQATGKERELVAAIRWSSGSTYYADSVKWRFTISRDNAKNTVYLQMNSLKPDDTAVYYCNAVYSVFYEYDYWGQGTQVTVSS | low polyreactivity |
| HVQLVESGGVLVQAGGSLRLSCAASGRIFRQNTMGWYRQAPGKEREIDATISWRGTRTNYADSVKGRFTISRDNAKNTVYLQMNSLKPEDTAVYYCNAQSWAYTLRTSLYDYWGQGTQVTVSS | high polyreactivity |
| HVQLVESGVGLVQAAGILRLSCAASGRTFSVYVMGWYRQATGKERELVAAISTSGARTYYADSVKGRFTISRDHAKNTVFLQMNSLKPEATAVYYCGARAIYKSKYDYWGHGTQVTVSS | high polyreactivity |
| HVQLVESGVGLVQAGGSLRLSCAASGSTFDGYLMGWYRQAPGKERELVAAISRSGGSTYYADSVKGRFTIARDNAKNTVYLQMNSLKPEDTAVYYCAARNSPGLPGDYWGQGTQVTVSS | high polyreactivity |
| IIQAGGSLRLCCAASGRTISVYAMGWYTQAAGKERELIADITSGGSTNYADSVKGRFTISRDNAKNTVYLQRNSLKPEDTAVYYCVAERQIRSFWSSRTYVFGYWGQGTQVTVSS | low polyreactivity |
| IIQAGGSLRLSCAASGSTLIGYTMGWYRQAPGKERELVAAITWGAGSTNYADSVKGRFTISRDNAKNTVYLQMNSLKPEDTAVYYCNADSTSDPRYLGEYDYWGQGTQVTVSS | low polyreactivity |
| KDQLVESGGGLVQAGGSLRLSCAASGRTFSHYTMGWYIQAPGKERELVARITRRGGRTYYADSVKGRFTISRDDAKNTVFLQMISLKPEDSAVYFCANEPWGYTRYTTYDYWGQGTQVTVSS | high polyreactivity |
| KLQLVESGGGLDQAGGSLRLSCAASGSIFVAYAMGSYRQAPGKERELVAAISKSGGSKYYADSVKGRFTISRDNAKNTVFLQMNSLKPEDTAVYYCAAGSDDFSRFGYWGQGTQVTVSS | low polyreactivity |
| KVQHVESGGGLVQAGGSLRLSCAASGLTFYTNAMGWYRQPPGKESEFVADITTSGGDTYYADSVKGRFTISRDNAKNTVYLQMNSLKPEDTAVYYCGEFWSYWGYGQYDYWGQGTQVTVSS | low polyreactivity |
| KVQLGESGGGLVQAGGSLRLSCAASGFIFGYNGMGWYRQAPGKERELVAGITYSDGSTYYADSVKGRFTISRDNAKNTVYLQMNSLKPEDTAVYYCAVDVIYYWAEDYDYWGQGTQVTVSS | low polyreactivity |
| KVQLVDSGGGLVQAGGSLRLSCAASGSIFGDNAMGWYIQAPGKERELVAAISIVGSTSYADSVKGRFTISRDNAKNTVYLLMNSLKPEDTAVYYCAAENVRSDTGFDYCGQGTQVTVSS | low polyreactivity |
| KVQLVESGAGLVQAGGSLRFSCAASGSIFIVYAMGWYRPAPGKERELVADITNGGDTNYADSVKGRFTISRDNAKNTVYLQMNSLKPEDTAVYYCAKYLWSYRVRTNVWRSYYWGQGTQVSVSS | high polyreactivity |
| KVQLVESGGGFVQAGGSLRLSCAPSGSIFTWNAMGLYRQAPGKERELVAAITRGGSTYADSVKGRFTLSRDNAKNTVYLQMNSLKPEDTAVYYCNAVYGVYEFNYWGQGTQVTVSS | low polyreactivity |
| KVQLVESGGGLVHAGGSLRLSCAASGRIIYYYAMGWYRTAPGKERELVAAISGRGTSTYYADSVKGRFTISRDNAKNTVYLKMNSLKPEDTAVYYCAARYYYWGQGTQVTVSS | high polyreactivity |
